Reference: the DeepSol protein solubility set

Assay: soluble on expression in E. coli; label from the status in PepcDB or PDB records

Sequence | soluble on expression in E. coli
MKKGHHHHHHGSQYNPQVADLKAFSKHIYNAYLKNFNMTKKKARSILTGKASHTAPFVIHDIETLWQAEKGLVWKQLVNGLPPYKEISVHVFYRCQCTTVETVRELTEFAKSIPSFSSLFLNDQVTLLKYGVHEAIFAMLASIVNKDGLLVANGSGFVTREFLRSLRKPFSDIIEPKFEFAVKFNALELDDSDLALFIAAIILCGDRPGLMNVPRVEAIQDTILRALEFHLQANHPDAQYLFPKLLQKMADLRQLVTEHAQMMQRIKKTETETSLHPLLQEIYKDMY | soluble
MMPLNRQSTTPLYIQLYQQMRDDYDATQANHQLWSIRKMAQNLGVSKTTVEQAYDQLLAEGYVYTVPGSGYFYRDRTHWPAAKQALETVPQPTKPRAFTYDFRYGVTQLLSPSWNAWKRAVRLALRQTEQQPTAVYPDAQGLPALRENLVRFLKTTRGVRCTADQIVITSGAKAGLSILLSILPRGTVGIENPGYRGLSELAASYGQTAVPIRVTEDGLDLTQVRARNPQIIYTTPGHQFPLGVVLPIEKRLALLQWAGTQHLIIEDDYDSEYRYSAHPLPALQSLATANQVAYLGTFSRGIDPTLRMGYLVLPPQLVATYHQRYQYRAEMVAGLLQQAMANYFEDGAYYRHLSRNRAANRQKYRVLCHQLAQTKQIRPIATGAGVHLVVQIPGIAQAKLLEALEQQQVRIYPLSSNWRDMPTTDYYLLGFAGLTLSELTTGVKRLVQVCEQLVR | not soluble
GSEPYSLTAQQSSLIREDKSNAKLWNEVLASLKDRPASGSPFQLFLSKVEETFQCICCQELVFRPITTVCQHNVCKDCLDRSFRAQVFSCPACRYDLGRSYAMQVNQPLQTVLNQLFPGYGNGR | soluble
MGSDKIHHHHHHMFQRAFLLYNGKAGNGKTDKYLKDVVPRALQSIGELTIIPSKEKGDIESICREREVDLIIVMGGDGTVHECINGLAVSPSPPPLVVLPTGTCNDFARSLRIPLSFVEAGNLLESGTWKRVPLIQANHRCYTNFLGMGIITTASEGTNPELKETFGRFSYFLSALQSLREPSPFSYTITSTKGSMSGQAILLLVMHGQFLGTLPVQLDENAIEQPFVTIYIVKEGGLPFIKDLVKGLVSPAMVNESDHIDRMTCDQCQIETEPVLSIDMDGEIYMKTPVNITTVGKVITVRVPDVNVTSDADHTIGGAQDTP | not soluble
DRQREAAQPAASQSASAMEANPTPAPDRSTSTSLFGDSDSAPRHRLNEEPAARRTSHDSEGMYTRRSVPRESYRDQRSDDFDDDLDIPDFLR | not soluble
MNTRNFSLPQLQNLPIEEARIVADALAVHATSRQIDSAASKLAALAEAGLKGDRQAYAAYQQLLYVLSLSDDVATAQTRRWLARAIYRVEERFMPAADLSRALSEEDFQKRLEQEIAAQSRERHPMSQYVFSGSASRAQLQVFLRHQWFRTFRLYRDAADLLVNLTDVDEAAALARYLYGELGEEDEKGSHPRLLAKLLEAIGLEADFQAVSTMPEEIAYLNNRARAFRHAEVGWGLAVFYITELVVPGNHEKLYRALLQAGLSEDQAEYYKVHISLVPPRAKREWQLIARRIPDVQFQNAFLTSLSQHFRVERAYYDAIWEEMQSVK | soluble
MSLFTGPIVAVGEYVEGLGEGRRYVSIPYYRREIERVIGARPFPGTFNVRVEREERESLRELASSYGYRIEPHGEYGGAWLYPCLVNGRPAWLVFPDLTEHRDQVELISETELRRELNVIHGDMVKIEVWGPSTWKLARRLTCGPSGGREGHHHHHH | soluble
SSMIMYRKDLMEKAGLTMPDAPTWDFVKEAAQKMTDKDAEVYGICLRGKAGWGENMAFLTAMANSYGARWFDENWQPQFDGEAWKATLTDYLDMMTNYGPPGASNNGFNENLALFQQGKCGMWIDATVAASFVTNPEESTVADKVGFALAPDTGKGKRANWLWAWNLAIPAGSQKVDAAKQFIAWATSKDYAELVASKEGWANVPPGTRISLYENP | not soluble
GMTDQSVRIIEAALRLYMKKPPHEVSIEEIAREAKVSKSLIFYHFESKQKLLEEAVMHAFRKMMEEFNPRSVEEVVDYGIGFIAERREFIEFMMYALSQVRIEELERMFGEALEKVASLFEGCRHPRETAIALMAMLDGLSIYSLYFDLGKLEKYREIAMEFVESRRVRA | soluble
MLLEPLKQLKQADARLNMTQGVLEGVVGEELGVLPGMDSIFSMLELERLVGFFRQATRKNHKGKPFDVIIYDGISTEETLRMIGLSSKTRLYAKYLRSLAEKTDLGRLTSPSIMRFVDESMNINSNKSPFDGMTSPAMWDTLERFLETGASAWRDPERFRSFLVMDPNNPMSVKAALRYWGCTVQAGSHVSGAFAISSSHLTSQIPKADFVPLPFASASVPFTITGLDWDKILLDQANSSIRELLSETVSHGTSLTQTVMFDTAKKLVTLFMPGFEKSEIKLYQYRGGSELLIEAGDQRRVIHLPSQIQGKVGGAKFVDRSLIVTMR | soluble
MKYSSFLKQAEENLVPIFSEIDAKVKENLYKVIEAFRHHRVGVQHFAGVSGYGHDDLGRDTLDGVFAQVMGAESAAVRVQFVSGTHAIACALYGILRPGDELLSAVGSPYDTLEEVIGLRGSCQGSLADFNISYRQLPLTAAGTVDWQGLETAVRPETRLVLIQRSCGYSWRPSLAIADIARIIEIVKAQNPRTLCFVDNCYGEFIETVEPTAIGVDLMAGSLIKNPGGTIVTAGGYLAGKEEWVEAGAYRLTAPGIGLEHHHHHH | not soluble
MAHHHHHHMNRSASLPSASPSLSTMRTITVALCASSKKHQQSFDALREAGKLHNERLLLMRQHSASRQAGCGDVSGEAGEASTAAPQEGCASGSRGMSSHSRSRRTSRATSEVLAHPARSRSTTEGSLSCAALSNCLFRFLSLNYDAQRHRMVLCIDGDIKEVHQSSAAAFAQDGSKANAQQSPSVDEHAGTDSTVRGEGEPSQSALMDEVDVVLHKVATFGTPVAIRALHQWYNGAQKRRSRQRRAPLIVVDPLEKVQLLMTRSMLCKLLNNVGDDGQPIALIPRTFVWDCPSDAACRHARRTNGSSAATPLGIHSFTSMEEQEARANGTAAEHWWIAKPDESTGAAFTHHLVMWLTRDADVSVPTAVKAALPTEACRFILQELYVYALPVVLKVYCVGSHISVKVNPTVSLLNYLWEHTRGSTLADVPVAMDSQDKAFFSTVASVSTSRSQPTLSAMTSSTDDDALPATSPTMNATNAAGAPPSPTELPQGTSSESASAEQSLIAWESMVVPVDYWNAFLAPGTPAYTAISKLAQDLSGDAGVGLSLYGFDLVLVPQYLAHTYQRKGARGIGRTEGATVRYEGVAPSLSKVAHRSADTAKPVQRIPASHSMRKLPGAGASAPPSPVSQLFRASDMFDLASGAPTSLLLDSIPVVIDVNYFPGYKGVAEVNQHMLELIALKSMHLQDGSSNRAWHADTATGAEAKKRRCSMM | not soluble
MAHHHHHHMSGAGRKHRAKHLTQQYLDASGWVGPKEGERLAICMESPHGQHVRVLLLVHPNSAPASSSTEAPAPDGSSSSDAPHGAKESEAGVSASPPSAAPLLEVEQVVHLPRKFHKVIWLSIKDVVVIADGTVSFKPSPEQVESFLKDPRNKGWRERVATAQHRAEDQRAALQRMPHYAATAQTTTSVLTGPQVRSGVRATANGTSEQDSEGSEGEADDMRNPNWRNIKHQQHFFYGLGDDSDEIEEEEDA | not soluble
MDPFGILYTDLYQLTMGQVYFRMGLHEKEALFEAFYRRNPDYGAHQAGYTVFAGLDPLLSWMEEARFGEEEIAALRNLKSRSGKPLFAEDYLRYLKAMGGFSGLTLRALPEGRVAHPQVPLVSVEGPLLQAQLLETALLNRLNYETLIATKASRVREAAGEAVVLEFGLRRAPAKGGESATRASLIGGANRSSAVSLSHLLGLPASGTHAHSLVQAFMALGYSEEDAFRAFAEVFPDDAILLLDTVDTLHSGLPHAIRVFEELRRKGHRPVGVRIDSGDLAHLAIQVARELDRAGFPEVLIVLSGDLDELVIWQIKSQILEEAPRYGVDPDRLLKRLVYGVGTRMVVSWGAPALGGVYKLVAVRENGTWAPAMKVSNSLEKVLNPGHKRVYRVYDERGLATADLLALAEEEVREDAPLTLRHPTDPTKRRTLRPGSFRLEPLLEEVYRGRRLFPPLPLEELRKRRDRDVALLDPGVRRLVNPHVYHVSLTERLFALKEELVRRLEG | soluble
MDEIPADIRNEIIYYYRLSRKVLLGLYNKSIIFVLPSIVEGMPSPPLEAMACGCAVVVTDNGGVNEYIKDGLNGIVCPVRDSYCLYQKVILLINNKALREQMIQDGLETAKEFSYDNMNKNFIRLIEEVQRRKSLEHHHHHH | not soluble
MSLKFSAKLVDDPSIEKSSSAIRLMCLSDTHGVHNNINKNTIFPADILLFAGDMTLFGNPEHAESFKNFITSLPVQHKVIISGNLDLPFDLKNYSHFTEWFSKFSYKNGPESIKTTFTEDQDIIYLEHQAVTIENVKIFGSPFTPAFGDFGFPTTKDTASKLWEQVPEDTDVILCHGPPHNICDMTSTGFHAGCPELRKSVERVKPAAVVFGHIHEAHGNTMIGNTLCCNVAIVNSNRDVAYGPTYIDLIQEGHHHHHH | soluble
MTQTQPVTPTPPASFQTQHDPRTRLGATPLPGGAGTRFRLWTSTARTVAVRVNGTEHVMTSLGGGIYELELPVGPGARYLFVLDGVPTPDPYARFLPDGVHGEAEVVDFGTFDWTDADWHGIKLADCVFYEVHVGTFTPEGTYRAAAEKLPYLKELGVTAIQVMPLAAFDGQRGWGYDGAAFYAPYAPYGRPEDLMALVDAAHRLGLGVFLDVVYNHFGPSGNYLSSYAPSYFTDRFSSAWGMGLDYAEPHMRRYVTGNARMWLRDYHFDGLRLDATPYMTDDSETHILTELAQEIHELGGTHLLLAEDHRNLPDLVTVNHLDGIWTDDFHHETRVTLTGEQEGYYAGYRGGAEALAYTIRRGWRYEGQFWAVKGEEHERGHPSDALEAPNFVYCIQNHDQIGNRPLGERLHQSDGVTLHEYRGAAALLLTLPMTPLLFQGQEWAASTPFQFFSDHAGELGQAVSEGRKKEFGGFSGFSGEDVPDPQAEQTFLNSKLNWAEREGGEHARTLRLYRDLLRLRREDPVLHNRQRENLTTGHDGDVLWVRTVTGAGERVLLWNLGQDTRAVAEVKLPFTVPRRLLLHTEGREDLTLGAGEAVLVG | soluble
MSLDSGTLGTPPPEQGPTPPTTLPDVPAPVIPSASVTSAASDFLAALHPPVTVPDPAPPPPPAPAAGNPPDTVTGDSVLQRILRGPTGPGTTSLAPAVRYGRQPGPEAPASAPPAAGRAVPGLYHHPVPEPDPVRVEEVSRRIKRWAEDEVQLYPEEWEGQFDGFSVGRYMVGCHPDAPTVDHLMLATRLMVAENAVDDCYCEDHGGSPVGLGGRLLLAHTAIDHFHSTAEYTPTWQASLAADAPRRAYDSAMGYFVRAATPSQSDRYRHDMARLHLGYLAEGAWAQTGHVPEVWEYLAMRQFNNFRPCPTITDTVGGYELPADLHARPDMQRVIALAGNATTIVNDLYSYTKELNSPGRHLNLPVVIAEREQLCERDAYLKAVEVHNELQHSFEAAAADLAEACPLPPVLRFLRGVAAWVDGNHDWHRTNTYRYSLPDFWEGHHHHHH | soluble
MIEFTALDDLSLLRESVSLECKLAQGRDGKGALPDDFWPTYSAMANTDGGIVILGVRERKGQFEVAGIENPDKLRTELFNHLNNRQKVSVNLLRDEDVRAWPVEGKTLLVVEIPRARRQQRPVYLRGNPLGGHTYRRLHEGDRPLPDEDVKRMLAEQVEDSRDERILPGYGLDDLHLESLRAYRQLFANRDPSHPWNALADQAFLRQIGGWRQHRETGEAGLTLAGLLMFGQWSSITEAVPLCFLDYQERPADYATTVQWLDRIVPDGTWSGNVFDFYRRVVGKLTADIKVPFVLKGDIRQDDTPTHKALREALVNTLVHADYTGRISVLVVKEPAGFVLRNPGGLRVPAQQALQGGMSDCRNRTMQQMFLMIGLGERAGSGMSRIVHGWRDLGHELHLRESYEPHEHSVLEMFWAKGRGATLASESSEESSEESSEETGKKILHLLREEPSLTASALARRLQLTPRAIEKQLAKLKAQKRLRRIGPNKGGHWEVGELEHHHHHH | soluble
